Here are results for 39 molecules from patent publication US20110118447A1.

The labels stand for the following.
B1: C5A (XPA23) VH S30R (antibody, V domains shown)
VH: EVQLLESGGGLVQPGGSLRLSCAASGFTFRKYFMFWVRQAPGKGLEWVSVISPSGGMTRYADSVKGRFTISRDNSKNTLYLQMNSLRAEDTAVYYCARVGYGGNSDYWGQGTLVTVSS
VL: DIQMTQSPSSVSASVGDRLTIICRASQDINRWLAWYQQTPGNAPKLLIHSATSLQSGVPSRFSGSGSGTDFTLTINSLQPEDFATYYCQQADSFPLTFGGGTKVEIK
B2: C5A (XPA23) VH Y32S (antibody, V domains shown)
VH: B1 VH with R30S, Y32S
VL: B1 VL
B3: C5A (XPA23) VH Y32E (antibody, V domains shown)
VH: B1 VH with R30S, Y32E
VL: B1 VL
B4: C5A (XPA23) VH F33E (antibody, V domains shown)
VH: B1 VH with R30S, F33E
VL: B1 VL
B5: C5A (XPA23) VH F33T (antibody, V domains shown)
VH: B1 VH with R30S, F33T
VL: B1 VL
B6: C5A (XPA23) VH F33D (antibody, V domains shown)
VH: B1 VH with R30S, F33D
VL: B1 VL
B7: C5A (XPA23) VH K31Y (antibody, V domains shown)
VH: B1 VH with R30S, K31Y
VL: B1 VL
B8: C5A (XPA23) VH S30N (antibody, V domains shown)
VH: B1 VH with R30N
VL: B1 VL
B9: C5A (XPA23) VH K31D (antibody, V domains shown)
VH: B1 VH with R30S, K31D
VL: B1 VL
B10: C5A (XPA23) VH K31H (antibody, V domains shown)
VH: B1 VH with R30S, K31H
VL: B1 VL
B11: C5A (XPA23) VH S30T (antibody, V domains shown)
VH: B1 VH with R30T
VL: B1 VL
B12: C5A (XPA23) VH Y32N (antibody, V domains shown)
VH: B1 VH with R30S, Y32N
VL: B1 VL
B13: C5A (XPA23) VH Y32T (antibody, V domains shown)
VH: B1 VH with R30S, Y32T
VL: B1 VL
B14: C5A (XPA23) VH F33K (antibody, V domains shown)
VH: B1 VH with R30S, F33K
VL: B1 VL
B15: C5A (XPA23) VH F33S (antibody, V domains shown)
VH: B1 VH with R30S, F33S
VL: B1 VL
B16: C5A (XPA23) VH K31R (antibody, V domains shown)
VH: B1 VH with R30S, K31R
VL: B1 VL
B17: C5A (XPA23) VH Y32D (antibody, V domains shown)
VH: B1 VH with R30S, Y32D
VL: B1 VL
B18: C5A (XPA23) VH Y32H (antibody, V domains shown)
VH: B1 VH with R30S, Y32H
VL: B1 VL
B19: C5A (XPA23) VL P95A (antibody, V domains shown)
VH: B1 VH with R30S
VL: B1 VL with P95A
B20: C5A (XPA23) VL S93I (antibody, V domains shown)
VH: B1 VH with R30S
VL: B1 VL with S93I
B21: C5A (XPA23) VL L96A (antibody, V domains shown)
VH: B1 VH with R30S
VL: B1 VL with L96A
B22: C5A (XPA23) VL S93L (antibody, V domains shown)
VH: B1 VH with R30S
VL: B1 VL with S93L
B23: C5A (XPA23) VL S93G (antibody, V domains shown)
VH: B1 VH with R30S
VL: B1 VL with S93G
B24: C5A (XPA23) VL P95F (antibody, V domains shown)
VH: B1 VH with R30S
VL: B1 VL with P95F
B25: C5A (XPA23) VL L96I (antibody, V domains shown)
VH: B1 VH with R30S
VL: B1 VL with L96I
B26: C5A (XPA23) VL D92I (antibody, V domains shown)
VH: B1 VH with R30S
VL: B1 VL with D92I
B27: C5A (XPA23) VL S93V (antibody, V domains shown)
VH: B1 VH with R30S
VL: B1 VL with S93V
B28: C5A (XPA23) VL F94P (antibody, V domains shown)
VH: B1 VH with R30S
VL: B1 VL with F94P
B29: C5A (XPA23) VL S93W (antibody, V domains shown)
VH: B1 VH with R30S
VL: B1 VL with S93W
B30: C5A (XPA23) VL S93A (antibody, V domains shown)
VH: B1 VH with R30S
VL: B1 VL with S93A
B31: C5A (XPA23) VL L96F (antibody, V domains shown)
VH: B1 VH with R30S
VL: B1 VL with L96F
B32: C5A (XPA23) VL D92L (antibody, V domains shown)
VH: B1 VH with R30S
VL: B1 VL with D92L
B33: C5A (XPA23) VL D92F (antibody, V domains shown)
VH: B1 VH with R30S
VL: B1 VL with D92F
B34: C5A (XPA23) VL F94L (antibody, V domains shown)
VH: B1 VH with R30S
VL: B1 VL with F94L
B35: C5A (XPA23) VL F94I (antibody, V domains shown)
VH: B1 VH with R30S
VL: B1 VL with F94I
B36: C5A (XPA23) VL S93F (antibody, V domains shown)
VH: B1 VH with R30S
VL: B1 VL with S93F
B37: C5A (XPA23) VL L96W (antibody, V domains shown)
VH: B1 VH with R30S
VL: B1 VL with L96W
B38: C5A (XPA23) VL D92W (antibody, V domains shown)
VH: B1 VH with R30S
VL: B1 VL with D92W
B39: C5A (XPA23) VL F94V (antibody, V domains shown)
VH: B1 VH with R30S
VL: B1 VL with F94V

Positions count from the first letter of the chain named. In names and notes the source's numbering stands.

In the first test the target is binding partner of C5A (XPA23). Description: Biacore. A general note: SPR reads the build-up and loss of mass on a sensor chip optically.
In the case of B1, the fold affinity vs original came to 0.1 fold.
Take B2: the fold affinity vs original was 1.33 fold.
With B3, the fold affinity vs original was found to be 0.12 fold.
For B4, the fold affinity vs original was 0.86 fold.
With B5, the fold difference in affinity vs original came to 0.78 fold.
Regarding B6, the fold affinity vs original worked out at 0.92 fold.
B7: the fold affinity vs original was found to be 0.04 fold.
With B8, the fold affinity vs original is 0.15 fold.
B9: the fold affinity vs original was 0.04 fold.
On the same count and under the same terms, for B10 the value was 1.11 fold.
Regarding B11, the fold difference in affinity vs original is 0.06 fold.
As to B12, the fold affinity vs original was 0.04 fold.
Take B13: the fold difference in affinity vs original worked out at 0.8 fold.
On to B14, for which the fold affinity vs original is 0.85 fold.
On the same count and under the same terms, with B15 the figure was 0.73 fold; with B16, 0.9 fold.
Same read-out and setting: with B17 the figure was 0.68 fold; with B18, 0.62 fold.

The target in a further test is binding partner of C5A (XPA23). Description: Biacore K-off.
For the molecule B1, the fold difference in affinity vs original worked out at 0.1 fold.
Consider B19, for which the fold difference in affinity vs original is 3.83 fold.
In the case of B2, the fold difference in affinity vs original is 1.33 fold.
Take B20: the fold difference in affinity vs original worked out at 1.35 fold.
Still for that read-out and setting: for B21 the value was 0.26 fold.
For the molecule B22, the fold difference in affinity vs original amounted to 1.08 fold.
The same measure, in the same setting: for B3 the value was 0.12 fold; for B23, 0.75 fold.
On to B24, for which the fold difference in affinity vs original came to 0.98 fold.
Same read-out and setting: for B25 the value was 0.67 fold; for B4, 0.86 fold.
In the case of B5, the fold difference in affinity vs original was found to be 0.78 fold.
Turning to B6, the fold difference in affinity vs original stood at 0.92 fold.
Turning to B26, the fold difference in affinity vs original was determined as 0.33 fold.
Consider B7, for which the fold difference in affinity vs original is 0.04 fold.
B27: the fold difference in affinity vs original turned out to be 3.81 fold.
For B28, the fold difference in affinity vs original was 0.17 fold.
In the case of B29, the fold difference in affinity vs original was determined as 5.49 fold.
Consider B30, for which the fold difference in affinity vs original was 1.16 fold.
Turning to B31, the fold difference in affinity vs original worked out at 0.28 fold.
For B8, the fold difference in affinity vs original worked out at 0.15 fold.
On to B9, for which the fold difference in affinity vs original came to 0.04 fold.
With B10, the fold difference in affinity vs original was found to be 1.11 fold.
Regarding B32, the fold difference in affinity vs original is 0.14 fold.
In the case of B33, the fold difference in affinity vs original stood at 0.26 fold.
In the case of B11, the fold difference in affinity vs original is 0.06 fold.
The same measure, in the same setting: with B12 the figure was 0.04 fold.
For the molecule B13, the fold difference in affinity vs original worked out at 0.8 fold.
On the same count and under the same terms, for B34 the value was 0.55 fold; for B14, 0.85 fold.
With B15, the fold difference in affinity vs original stood at 0.73 fold.
For the molecule B16, the fold difference in affinity vs original is 0.9 fold.
As for B17, the fold difference in affinity vs original came to 0.68 fold.
For B35, the fold difference in affinity vs original worked out at 0.88 fold.
B36: the fold difference in affinity vs original was found to be 1.32 fold.
Still for that read-out and setting: with B37 the figure was 4.49 fold; with B38, 0.12 fold.
On to B39, for which the fold difference in affinity vs original was 0.2 fold.
B18: the fold difference in affinity vs original was 0.62 fold.
